This is an account of results in the supplement of paper PMC9170038.

In this data set the test system is MS2 coat protein. Put plainly: apparent KD of MS2 coat protein; designed switch direction (-1 OFF switch, 1 ON switch): -1; higher = weaker reporter binding. Summed up:
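Stalled E. coli RNA polymerase transcribed designed RNA switches on Illumina chips, which were then titrated with SNAP-549-labelled MS2 coat protein, doubling from 0.7 or 1.5 nM to 3 µM. Steps lasted from 0.8–1.5 h at the lowest concentration to 10–20 min at the highest. The apparent KD is each design's median over clusters of curve-fitted normalised fluorescence.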

Where [1] appears, read: input ligand: microRNA oligo, concentration not stated.
Where [2] appears, read: Eterna round: R95, input ligand: microRNA oligo, concentration not stated.
The mark [3] stands for this setting: Eterna round: R95, input ligand: FMN 200 uM.
Where [4] appears, read: Eterna round: R95, input ligand: none.

As for “GUUGUUUAUGUAGGAUAUGCCUGGCGUGCCUUUGCAGAAGGACAUGAGGAUCACCCAUGUAUUGCGGUCUGCGUUCAGAUCGCA [salish99_ExNG1_r4_039] (Eterna round: R96, puzzle: Exclusion NG 1)”, the “apparent KD of MS2 coat protein” value by setting is: (input ligand: FMN 200 uM) 59.5 nM; under setting [1], 26 nM; (input ligand: none) 39 nM.
As to “GACAGCAUGCAGGAUAUACCUCCUCUGCGGACGGUAGAAGGGCGUACAUGAGGAUCACCCAUGUCACCCAUUUC [Eternabot (L2) Solution 61] (Eterna round: R97, puzzle: Exclusion 6)”, the “apparent KD of MS2 coat protein” value by setting is: (input ligand: FMN 200 uM) 13.9 nM; (input ligand: none) 14.4 nM.
Turning to “UUGAACAUAGGAUAUAGUUGUUUGUACAUGAGGAUCACCCAUGUUAGGGAUGUUUUGUUUCUAGAAGGAUGUUGAU [JR_E5_Sub001] (puzzle: Exclusion 5)”, the “apparent KD of MS2 coat protein” value under setting [2] came to 128 nM.
On to “GCAUCCAGUGUGAGGAUAUACCUCUGGAUACAUAGGUAGAAGGCACAUGAGGAUCACCCAUGUCCUAAGGAUGC [Fiskers BMX 4 - 29] (puzzle: Brourd's mod of Exclusion 4)”, for which the “apparent KD of MS2 coat protein” value is 104 nM under setting [3], 47.5 nM under setting [2] and 75.5 nM under setting [4].
As for “AGAUGCAGAGUAAGGAUAUGGUAGGCUUGCGCAAACCAGAAGGUACAUGAGGAUCACCCAUGUAAGCAUCAAGU [eternacac ex4r4 #5] (Eterna round: R97, puzzle: Brourd's mod of Exclusion 4)”, the “apparent KD of MS2 coat protein” value by setting is: (input ligand: FMN 200 uM) 16 nM; (input ligand: none) 15.1 nM.
With “UUAGAAAUGGUAGGAUAUUAGUAGUGUUUUACUCUGAUCCACAUGAGGAUCACCCAUGUGAGUAGUGAGAAGGAUCAUUUUAUG [base off of JR design] (Eterna round: R96, puzzle: Exclusion NG 2)”, the “apparent KD of MS2 coat protein” value is 21.1 nM (input ligand: FMN 200 uM), 17.8 nM under setting [1] and 19.3 nM (input ligand: none).
For “ACAUGAGGAUCACCCAUGUAAACAUAAUGGCUCAUGUAGAGUCAGGAUAUGCGUGGCGAACAACCGCAGAAGGGACAAGACUGG [Deportation 27 - Jieux - Exclusion NG 3] (Eterna round: R96, puzzle: Exclusion NG 3)”, the “apparent KD of MS2 coat protein” value reads like this: (input ligand: FMN 200 uM) 25.7 nM; under setting [1], 20.4 nM; (input ligand: none) 29 nM.
“AUGCUCCGUGUAGGAUAUCGCCGCACCACCCGGCGAGAAGGACAUGAGGAUCACCCAUGUAUGUUAUUAUCACGUGUGGCGCGC [Design 42] (Eterna round: R96, puzzle: Exclusion NG 1)”: the “apparent KD of MS2 coat protein” value runs as follows: (input ligand: FMN 200 uM) 17.2 nM; under setting [1], 12.3 nM; (input ligand: none) 13.6 nM.
Regarding “CAUACACAUGAGGAUCACCCAUGUGAGGAUAUGCGUACGUAAUCCGUAGGAGACGUGCGCAGAAGGCGCGAGGU [Mat - Mod of JL D94] (puzzle: Exclusion 1)”, under setting [2], the “apparent KD of MS2 coat protein” value is 38.7 nM.
In the case of “AUCAGCUCGUGAGGAUAUGAACAUGAGGAUCACCCAUGUAAGAUCAAGCUGCUUCGGCAGCAAGUUCAGAAGGCACGAGCUGAU [ENG2/10-A3] (Eterna round: R96, puzzle: Exclusion NG 2)”, the “apparent KD of MS2 coat protein” value is 182 nM (input ligand: FMN 200 uM), 84 nM under setting [1] and 156 nM (input ligand: none).
For “ACUCUAUAGUAGGAUAUCAUCAAACUAUUGUGAUGAGAAGGACUAACAUGAGGAUCACCCAUGUUAACGUGAAG [Mod of Brourd 5 - Jieux - Exclusion 6] (Eterna round: R97, puzzle: Exclusion 6)”, the “apparent KD of MS2 coat protein” value worked out at 24.3 nM (input ligand: FMN 200 uM) and 21.1 nM (input ligand: none).
The corresponding values for “GUAAACGAUCAGGAUAUAUCAAAUCAUAGCUUGAUAGAAGGGAUCACAUGAGGAUCACCCAUGUGAUCUUCUUU [jl-ex6-4.15 ViennaUCT mod] (Eterna round: R97, puzzle: Exclusion 6)” are 13.2 nM and 13.9 nM.
Taken in the same sequence, the figures for “CGCUGGACAGGAUAUGUUCUUGGGCACUUGAGGAUCACCCAAGUCAUCGGGACAUCAGGCACAGAAGGGUCGUUGG [salish99_ex5_r4_029] (Eterna round: R97, puzzle: Exclusion 5)” were 22.2 nM and 25.6 nM.
Taken in the same sequence, the figures for “CCGCGACAUGAGGAUCACCCAUGUUAGGAUAUGUGCGCCAACCAAGGAAUUGGUAGGUACAGAAGGAGCUGGGU [Eternabot (L2) Solution 97] (Eterna round: R97, puzzle: Exclusion 1)” were 149 nM and 56.3 nM.
Regarding “CCAUUCAGAGGAUAUGCGCAUAAAUAAAACUUUUUUUUUUAACAUGAGGAUCACCCAUGUAGAAGGCUGUAACC [Ex2 #45] (Eterna round: R97, puzzle: Exclusion 2)”, the “apparent KD of MS2 coat protein” value runs as follows: (input ligand: FMN 200 uM) 27.2 nM; (input ligand: none) 26.7 nM.
As to “CAGUUCCAGGGAGGAUAUCCGAAAGGAAGUGUAGGAGAAGGCCCAAACUGAAAACACAUGAGGAUCACCCAUGUAGGUGUUCUC [PowerStrip EXNG 1.20] (Eterna round: R96, puzzle: Exclusion NG 1)”, the “apparent KD of MS2 coat protein” value runs as follows: (input ligand: FMN 200 uM) 1320 nM; under setting [1], 656 nM; (input ligand: none) 659 nM.
On to “UCAAAAUAGUCAGGAUAUGCAGAUUCAGCGUCCGCAGAAGGGACAGUGGGCUGGUCCGACACAUGAGGAUCACCCAUGUAAAAG [Teerreanor] (Eterna round: R96, puzzle: Exclusion NG 1)”, for which the “apparent KD of MS2 coat protein” value stood at 260 nM (input ligand: FMN 200 uM), 140 nM under setting [1] and 109 nM (input ligand: none).
Turning to “UGUGGGUCAGGAUAUUCUAUUUAUUACAUGAGGAUCACCCAUGUGAAUGUACAAGGGUGUGAAGAAGGGACUUGUG [LRO-Excl5-02-mod A17d by Omei] (Eterna round: R97, puzzle: Exclusion 5)”, the “apparent KD of MS2 coat protein” value turned out to be 793 nM (input ligand: FMN 200 uM) and 2360 nM (input ligand: none).
With “CGAUGUCUUCGGACAUCGAACAUGAGGAUCACCCAUGUAUAGAGCAGAUCUUCAUGCAAGCUUUUUGCUCGUCUUAU [Sensor v3 - turn-off variant 1 - 47] (puzzle: Sensor v3, turn-off variant 1)”, the “apparent KD of MS2 coat protein” value under setting [3] came out at 84.7 nM, the “apparent KD of MS2 coat protein” value under setting [2] was 14.6 nM and the “apparent KD of MS2 coat protein” value under setting [4] is 90.4 nM.
In the case of “GGCCUUCCGCAAGCUUUUUACAUGAGGAUCACCCAUGUGAUUUUUAGUCUUAUGCCCGGGCCCGUGUGGGCCCGGGC [-34.8, -55.6, A 14%] (Eterna round: R97, puzzle: Sensor, turn-off variant 1)”, the “apparent KD of MS2 coat protein” value runs as follows: (input ligand: FMN 200 uM) 23.4 nM; (input ligand: none) 23.1 nM.
Regarding “CUGGUCCGAGGAUAUAUUAAGUGAUACAUGAGGAUCACCCAUGUUAUUUGAUGGAUGUUAAUAGAAGGCGGACUAG [JL-ex5-3.18] (puzzle: Exclusion 5)”, the “apparent KD of MS2 coat protein” value runs as follows: under setting [3], 78.3 nM; under setting [2], 35.7 nM; under setting [4], 57.6 nM.
For the sequence “AUUAUACAUGAGGAUCACCCAUGUGAGGAUAUCCGCAGCACAGGCAGAGUCGGUUGCAGGAGAAGGCACUCCUC [Eternabot (L1) Solution 57] (Eterna round: R97, puzzle: Exclusion 1)”, the “apparent KD of MS2 coat protein” value runs as follows: (input ligand: FMN 200 uM) 72.5 nM; (input ligand: none) 44.4 nM.
For the sequence “ACCUCACUUGAGGAUCACCCAAGUCAGGAUAUACUCGUUUGCCACAAAACGCGGCAUUGUAGAAGGGACGGGCU [Esusso] (Eterna round: R97, puzzle: Exclusion 1)”, the “apparent KD of MS2 coat protein” value was 30 nM (input ligand: FMN 200 uM) and 21.5 nM (input ligand: none).
Take “GGUAGUUCAGAUCCACAUGAGGAUCACCCAUGUUAAAGGAUCUAGGAUAUCGGGACAUCGAUGCCCGAGAAGGAGACUUUAGCG [Eternabot solution 39] (Eterna round: R96, puzzle: Exclusion NG 3)”: the “apparent KD of MS2 coat protein” value was determined as 173 nM (input ligand: FMN 200 uM), 100 nM under setting [1] and 101 nM (input ligand: none).
As for “AACUGGACAGGAUAUGUUCUUGAGCACUUGAGGAUCACCCAAGUCAUCAAGAACUCAGGCACAGAAGGGUUUAUGA [jl-ex5.4.60 ViennaUCT mod] (Eterna round: R97, puzzle: Exclusion 5)”, the “apparent KD of MS2 coat protein” value (input ligand: FMN 200 uM) is 28.9 nM and the “apparent KD of MS2 coat protein” value (input ligand: none) is 13.4 nM.
Consider “CACCGUUACAGAGGAUAUCGUACAUGAGGAUCACCCAUGUAAUAAAUGAGAAUUUCGGAUGUAUGCGAGAAGGCUGGAAUCGGC [Ostracism 37 - Jieux - Exclusion NG 2] (Eterna round: R96, puzzle: Exclusion NG 2)”, for which the “apparent KD of MS2 coat protein” value under setting [1] came to 20.7 nM.
In the case of “UUUUACCGAGGAUAUACAUAUAAAUAAUAAUCCUCAUUAUUACAUGAGGAUCACCCAUGUAGAAGGCGGAUUUU [Mat - Exclusion 2 - Mod of Hog - D88] (puzzle: Exclusion 2)”, the “apparent KD of MS2 coat protein” value under setting [2] was determined as 96.3 nM.
For “GCUGGUCAAGGAUAUACAUGAGGAUCACCCAUGUGGUCACGUGACGAUAGUCACGAAUGUAGAAGGUGACCAGC [E3/3-C1] (Eterna round: R97, puzzle: Exclusion 3)”, the “apparent KD of MS2 coat protein” value (input ligand: FMN 200 uM) stood at 51.1 nM and the “apparent KD of MS2 coat protein” value (input ligand: none) worked out at 260 nM.
As to “GAUAGACAUGAGGAUCACCCAUGUGAGGAUAUGCGUACGUUGUCAGUAGGCGACGUGCGCAGAAGGCGCAAGUU [Mat - Mod of JL D91] (puzzle: Exclusion 1)”, the “apparent KD of MS2 coat protein” value under setting [2] is 61.8 nM.
Take “CUAGCUUCGGCUAGUACAAGCUUUUUGCUCGUCUUAUUAACAUGAGGAUCACCCAUGUUAAUGAGACCUCAUGUAUU [Sensor v3 - turn-off variant 2 - 9] (puzzle: Sensor v3, turn-off variant 2)”: the “apparent KD of MS2 coat protein” value is, setting by setting: under setting [3], 12.7 nM; under setting [2], 15.2 nM; under setting [4], 11.1 nM.
